In paper doi:10.1101/2021.02.05.429969 (bioRxiv, 2021):

B1: CagFbFP-Q148N (domain or fragment)
chain: MASGMIVTDAGADQPIVFVNRAFSTITGYAPNEVLGRNARFLQGPQTDAATVARLREAIAAARPIQERILNYRKDGQPFWNQLSISPVRDETGNVVAFVGVNTDVTA
B2: CagFbFP-Q148D (domain or fragment)
chain: MASGMIVTDAGADQPIVFVNRAFSTITGYAPNEVLGRNARFLQGPQTDAATVARLREAIAAARPIQERILNYRKDGQPFWNQLSISPVRDETGNVVAFVGVDTDVTA
B3: CagFbFP-Q148E (domain or fragment)
chain: MASGMIVTDAGADQPIVFVNRAFSTITGYAPNEVLGRNARFLQGPQTDAATVARLREAIAAARPIQERILNYRKDGQPFWNQLSISPVRDETGNVVAFVGVETDVTA
B4: CagFbFP-Q148K (domain or fragment)
chain: MASGMIVTDAGADQPIVFVNRAFSTITGYAPNEVLGRNARFLQGPQTDAATVARLREAIAAARPIQERILNYRKDGQPFWNQLSISPVRDETGNVVAFVGVKTDVTA
B5: CagFbFP-Q148H (domain or fragment)
chain: MASGMIVTDAGADQPIVFVNRAFSTITGYAPNEVLGRNARFLQGPQTDAATVARLREAIAAARPIQERILNYRKDGQPFWNQLSISPVRDETGNVVAFVGVHTDVTA
B6: CagFbFP-Q148R (domain or fragment)
chain: MASGMIVTDAGADQPIVFVNRAFSTITGYAPNEVLGRNARFLQGPQTDAATVARLREAIAAARPIQERILNYRKDGQPFWNQLSISPVRDETGNVVAFVGVRTDVTA

Biological target: the molecule itself
Experiment: crystal structure

| Protein | binding result |
| --- | --- |
| B1 | binds |
| B2 | binds |
| B3 | binds |
| B4 | binds |
| B5 | binds |
| B6 | binds |
